Positions count from the first letter of the chain named.
T1: GFP-9S library array, motif 4 ND D124F (synthetic construct, D124F)
T1 chain: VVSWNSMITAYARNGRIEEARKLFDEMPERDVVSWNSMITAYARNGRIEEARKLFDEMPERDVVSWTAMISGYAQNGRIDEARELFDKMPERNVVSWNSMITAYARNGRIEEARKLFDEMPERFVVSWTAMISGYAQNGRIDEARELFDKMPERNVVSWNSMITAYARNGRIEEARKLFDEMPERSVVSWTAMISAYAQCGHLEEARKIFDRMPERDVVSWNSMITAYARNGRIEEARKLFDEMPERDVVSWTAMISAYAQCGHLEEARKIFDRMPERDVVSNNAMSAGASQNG

T2: GFP-9S library array, motif 4 ND N98T;D124E (synthetic construct, N98T;D124E)
T2 chain: T1 chain with N98T, F124E

T3: GFP-9S library array, motif 4 ND N98G;D124I (synthetic construct, N98G;D124I)
T3 chain: T1 chain with N98G, F124I

T4: GFP-9S library array, motif 4 ND N98L;D124T (synthetic construct, N98L;D124T)
T4 chain: T1 chain with N98L, F124T

T5: GFP-9S library array, motif 4 ND N98F;D124W (synthetic construct, N98F;D124W)
T5 chain: T1 chain with N98F, F124W


What was measured:
Experiment in all cases: high-throughput RNA pulldown from lysate on Ni-NTA beads; HRP: 50 mM Tris pH 8, 150 mM NaCl, 1 mM beta-mercaptoethanol, 50 ug/ml BSA, 3 ug/ml yeast RNA, 0.5% heparin; ITC and FP: Tris pH 8, 200 mM KCl, 5% glycerol; MST: 50 mM Tris pH 8, 200 mM NaCl, 1 mM DTT, BSA, heparin, 0.05% Tween 20
Settings in all cases: tags: N-terminal His-eGFP
[1] = target: T1, GFP-9S library array, motif 4 ND D124F
[2] = target: T2, GFP-9S library array, motif 4 ND …
[3] = target: T3, GFP-9S library array, motif 4 ND …
[4] = target: T4, GFP-9S library array, motif 4 ND …
[5] = target: T5, GFP-9S library array, motif 4 ND …

Row | Binder | Kd ([1]; label: 5' Cy5) | Kd ([2]; label: 5' Cy5) | Kd ([3]; label: 5' Cy5) | Kd ([4]; label: 5' Cy5) | Kd ([5]; label: 5' Cy5) | Kd ([1]; label: 5' IRDye 800CW) | Kd ([2]; label: 5' IRDye 800CW) | Kd ([3]; label: 5' IRDye 800CW) | Kd ([4]; label: 5' IRDye 800CW) | Kd ([5]; label: 5' IRDye 800CW)
1 | AUUACACGUGA (ssRNA) [Cy5-rpoA] | 109 nM | 258 nM | 105 nM | 103 nM | 99.3 nM |  |  |  |  | 
2 | AUUAUACGUGA (ssRNA) [IR-rpoA-U] |  |  |  |  |  | 63.9 nM | 134 nM | 205 nM | 19 nM | 364 nM
3 | AUUAGACGUGA (ssRNA) [Cy5-rpoA-G] | 140 nM | 13.2 nM | 113 nM | 206 nM | 72.2 nM |  |  |  |  | 
4 | AUUAAACGUGA (ssRNA) [IR-rpoA-A] |  |  |  |  |  | 202 nM | 185 nM | 315 nM | 171 nM | 236 nM

Reference: article PMC8809517, “Cofactor-independent RNA editing by a synthetic S-type PPR protein”
